Data set [1] has as its target T1, ERα DB domain (DNA-binding domain) (human, UniProt P03372 176-250). Nature of the data set: ITC.
Data set [2] addresses T1, ERα DB domain (DNA-binding domain). Nature of the data set: ITC. The source holds these as a separate data set.
The data set “SEC-MALS” concerns the molecule itself. The data set can be described thus: SEC-MALS. On the technique in general: SEC sorts molecules by how far they enter the pores of the column.

Where two headings read alike, the source gives them in different places.

B1: ERE duplex (dsDNA)
DNA 1: CCCAGGTCACAGTGACCTGCG
DNA 2: CGCAGGTCACTGTGACCTGGG
The Kd is the equilibrium constant for the complex coming apart. A higher Kd goes with weaker binding. On to B1, for which the equilibrium dissociation constant (Kd) was found to be 81 ± 2 nM in data set [1] and 68 ± 8 nM in data set [2].

B2: DB domain of ERα pre-treated with EDTA to strip divalent zinc ions (metal-free DB domain) (domain or fragment, human, UniProt P03372 176-250, looked up)
chain: MESAKETRYCAVCNDYASGYHYGVWSCEGCKAFFKRSIQGHNDYMCPATNQCTIDKNRRKSCQACRLRKCYEVGM
For orientation: stoichiometry N means the number of molecules, sites or subunits per partner or assembly. In the case of B2, the “stoichiometry N” value in “SEC-MALS” was 2.

B3: DB domain of ERα reconstituted with divalent ions of mercury (domain or fragment, human, UniProt P03372 176-250, looked up)
chain: B2 chain
Consider B3, for which, in “SEC-MALS”, the “stoichiometry N” value worked out at 2.

B4: DB domain of ERα reconstituted with divalent ions of zinc (domain or fragment, human, UniProt P03372 176-250, looked up)
chain: B2 chain
For B4, in the data set “SEC-MALS”, the “stoichiometry N” value is 2.

B5: DB domain of ERα reconstituted with divalent ions of cobalt (domain or fragment, human, UniProt P03372 176-250, looked up)
chain: B2 chain
Regarding B5, in “SEC-MALS”, the “stoichiometry N” value was 2.

B6: DB domain of ERα reconstituted with divalent ions of cadmium (domain or fragment, human, UniProt P03372 176-250, looked up)
chain: B2 chain
B6: in “SEC-MALS”, the “stoichiometry N” value turned out to be 2.

The record behind these values is publication PMC3205435 (Journal of molecular recognition : JMR, 2011).
